Assays:
[1] = target: extracellular domain of hCD4 fused with human Fc tag (hCD4-hFc) (human) (UniProt P01730); assay: ELISA on plate-coated CD4-hFc, OD450; fitted EC50 of the negative control in the table under the graph (unit from the graph's axis)
[2] = target: extracellular domain of hCD4 fused with human Fc tag (hCD4-hFc) (human) (UniProt P01730); assay: ELISA on human CD4, OD450; fitted EC50 of the control in the table under the graph (unit from the graph's axis)

Substance | EC50 [1] | EC50 [2]
mIgG1 (antibody) | 0.542 µg/mL | –
Isotype IgG1 (antibody) | – | 4.48 µg/mL
hIgG1 (antibody) | – | 0.78 µg/mL
